Laboratory results as given in patent publication US20240027467A1 (VIB VZW, published 2024).
Read-outs that look alike come from different tables or passages of the source.

Tests used:
[1] = biological target: T1, recombinant human coagulation factor IXa (human, UniProt P00740 134-191; P00740 227-461); experiment: BLI
T1 construct: range 134-191;range 227-461; Fluorescently labelled with Dylight-647 for the NANEX runs; also called FIXa

mCherry [2] = experiment: BLI
Protocol: (§1) Streptavidin-coated Octet® biosensors were used to capture biotinylated Nanobodies (1 μg/mL). […] All assays were performed in Hepes 25 mM pH7.5, NaCl 150 mM supplemented with BSA 0.1% and Tween²⁰ 0.005% at room temperature.

mCherry [3] = experiment: BLI (OctetRed), biotinylated Nb on streptavidin sensor, mCherry 8.23-222 nM
Protocol: as §1

[4] = biological target: T2, FmIH_lectin_mCherry_his (CA17337); experiment: NANEX column: lysate with FmlH_lectin_mCherry_his on immobilised CA16964; A280 and SDS-PAGE [D00043 FIG. 39B]
T2 construct: also called mCherry-fusion protein

GFP protein [5] = biological target: T3, GFP protein (Aequorea victoria (Water jellyfish) …, UniProt P42212 1-238 = GFP); experiment: BLI
T3 construct: Purified GFP used as BLI analyte, in crystals and in NANEX; also called Green fluorescent protein
Protocol: (§2) Streptavidin-coated Octet® biosensors were used to capture biotinylated Nanobodies (1 μg/mL). Binding and dissociation isotherms at several GFP concentrations (8 nM to 500 nM range) were analyzed on an OctetRed (molecular devices). All assays were performed in Hepes 25 mM pH7.5, NaCl 150 mM supplemented with BSA 0.1% and Tween²⁰ 0.005% at room temperature.

GFP protein [6] = biological target: T3, GFP protein; experiment: BLI (OctetRed), biotinylated Nb on streptavidin sensor, GFP 8-500 nM
Protocol: as §2

[7] = biological target: T4, SMT3 (YDR510W), ubiquitin-like protein SMT3 (yeast); experiment: BLI
T4 construct: also called yeast SUMO protein
T4 chain: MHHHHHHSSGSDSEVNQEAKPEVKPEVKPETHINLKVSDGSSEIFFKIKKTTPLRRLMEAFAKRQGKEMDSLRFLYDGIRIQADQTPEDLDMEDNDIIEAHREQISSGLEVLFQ
Protocol: (§3) Streptavidin-coated Octet® biosensors were used to capture biotinylated Nanobodies (1 μg/mL). Binding and dissociation isotherms at several SMT3 concentrations (10 nM to 500 nM range) were analyzed on an OctetRed (molecular devices). All assays were performed in Hepes 25 mM pH7.5, NaCl 150 mM supplemented with BSA 0.1% and Tween²⁰ 0.005% at room temperature.

[8] = biological target: T4, SMT3 (YDR510W), ubiquitin-like protein …; experiment: BLI (OctetRed), biotinylated Nb on streptavidin sensor, SMT3 10-500 nM
Protocol: as §3

[9] = biological target: T5, GST (Glutathione S-transferase) (Schistosoma japonicum (Blood fluke), UniProt P08515 1-218 = GST); experiment: BLI
Protocol: as §1

[10] = biological target: T5, GST (Glutathione S-transferase); experiment: BLI (OctetRed), biotinylated Nb on streptavidin sensor, GST 63-1667 nM
Protocol: as §1

GFP protein [11] = biological target: T3, GFP protein; experiment: BLI; remark: listed apart in the source
Protocol: (§4) Streptavidin-coated Octet® biosensors were used to capture biotinylated Nanobodies (1 μg/mL). Binding and dissociation isotherms at several GFP concentrations (1 nM to 5 μM range) were analyzed on an OctetRed (molecular devices). All assays were performed in Hepes 25 mM pH7.5, NaCl 150 mM supplemented with BSA 0.1% and Tween²⁰ 0.005% at room temperature.

GFP protein [12] = biological target: T3, GFP protein; experiment: comparison of affinities told with the NANEX result
GFP protein [13] = biological target: T3, GFP protein; experiment: BLI (OctetRed), biotinylated Nb on streptavidin sensor, GFP as analyte
Protocol: as §4

mCherry [14] = experiment: BLI; remark: listed apart in the source
Protocol: as §1

mCherry [15] = experiment: BLI (OctetRed), biotinylated Nb on streptavidin sensor, mCherry 8.23-222 nM; remark: listed apart in the source
Protocol: as §1

[16] = biological target: T2, FmIH_lectin_mCherry_his (CA17337); experiment: displacement of FmlH_lectin_mCherry_his from immobilised CA16964 (NANEX column) by 1 mg CA17302; A280 and SDS-PAGE [D00043 FIG. 39B]
[17] = biological target: T1, recombinant human coagulation factor IXa; experiment: tandem NANEX: displacement of factor IXa from immobilised CA10502 by 1 mL of 2.5 mg/mL (24 µM) MegaBody CA14208; A280/A650 and SDS-PAGE

T1 sequence (P00740 134-191 limits assumed, form in doubt, chain 1 of 2): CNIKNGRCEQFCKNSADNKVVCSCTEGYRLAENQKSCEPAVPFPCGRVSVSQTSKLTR
T1 sequence (P00740 227-461 limits assumed, form in doubt, chain 2 of 2): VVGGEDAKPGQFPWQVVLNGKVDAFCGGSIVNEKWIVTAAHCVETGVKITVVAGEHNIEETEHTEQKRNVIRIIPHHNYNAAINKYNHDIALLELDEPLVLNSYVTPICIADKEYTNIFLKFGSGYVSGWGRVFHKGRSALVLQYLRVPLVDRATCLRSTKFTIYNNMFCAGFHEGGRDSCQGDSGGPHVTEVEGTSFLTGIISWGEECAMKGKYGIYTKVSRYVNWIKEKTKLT

B1: CA11138 FIXa-specific Nb (C-term. 6xHis+EPEA) (VHH)
VHH: QVQLVESGGGLVQAGGSLRLSCAASERTASNYVMGWFRQAPGKEREFVAFISRTGGSTYYADSVKGRFTVSRDGAKNTVYLQMNTMKPEDTAVYYCAASLYIRNYYEGTNYAYWGQGTQVTVSS
notes: also called trapper1
[1]
  Kd: 141 nM
  koff: 0.0042 s⁻¹
  kon: 34000 M⁻¹ s⁻¹

B2: CA16964 mCherry Nanobody trapper (including C-terminal 6xHis+EPEA tag) (VHH)
VHH: QVQLVESGGGLVQAGGSLRLSCAASGRDFSFDGMGWFRQAPGKEREFVAAISWSGLRIGYSDSVKGRFTISRDNAETTVHLQMNSLKPEDTAVYYCATGSHATTKAQLYDYEYWGQGTQVTVSS
modifications: biotinylated for BLI
notes: also called Nb CA16964
mCherry [2]
  Half time ratio (relative to CA17302): 4.27 fold
  KD ratio (relative to CA17302): 3.86 fold
mCherry [3]
  Kd: 6.53 nM
  koff: 0.00436 s⁻¹
  kon: 694000 M⁻¹ s⁻¹
[4]
  binding result: binds

B3: CA16047 second GFP Nanobody stripper (including C-terminal 6xHis+EPEA tag) (VHH)
VHH: QVQLQESGGGLVQAGGSLRLSCAASGFTFDGYAIGWFRQAPGKEREGVSCISSSDGSTYYADSVKGRFTISSDNAKNTVYLQMNSLKPEDTAVYYCVAAWSPSTGCGSYYVQRPPGYDYWGQGTQVTVSS
modifications: biotinylated for BLI
notes: also called Nb CA16047
GFP protein [5]
  Half time ratio (relative to wt): 1 fold
  KD ratio (relative to wt): 1 fold
GFP protein [6]
  Kd: 6.15 nM
  koff: 0.00098 s⁻¹
  kon: 234000 M⁻¹ s⁻¹

B4: CA16695 second GFP Nanobody trapper (Y119F) (including C-terminal 6xHis+EPEA tag) (VHH)
VHH: QVQLQESGGGLVQAGGSLRLSCAASGFTFDGYAIGWFRQAPGKEREGVSCISSSDGSTYYADSVKGRFTISSDNAKNTVYLQMNSLKPEDTAVYYCVAAWSPSTGCGSYYVQRPPGYDFWGQGTQVTVSS
modifications: biotinylated for BLI
notes: Y119F mutant of CA16047; also called Nb CA16695
GFP protein [5]
  Half time ratio (relative to wt CA16047): 1.78 fold
  KD ratio (relative to wt CA16047): 1.37 fold
GFP protein [6]
  Kd: 8.53 nM
  koff: 0.00167 s⁻¹
  kon: 200000 M⁻¹ s⁻¹

B5: CA15839 SMT3 Nanobody stripper (including C-terminal 6xHis+EPEA tag) (VHH)
VHH: QVQLVESGGGSAQTGGSLTLSCTASGSIVSMNSMGWFRRAPWKGREWLGDIGRDGRTSYASSVVGRFHISRDEAKNTVYLQMTRLKPEDAAMYYCAAVPFGDDDVGEWEYWGQGTQVTVSS
modifications: biotinylated for BLI
[7]
  Half time ratio (relative to wt): 1 fold
  KD ratio (relative to wt): 1 fold
[8]
  Kd: 6.67 nM
  koff: 0.00212 s⁻¹
  kon: 318000 M⁻¹ s⁻¹

B6: CA16687 SMT3 Nanobody trapper (D50A) (including C-terminal 6xHis+EPEA tag) (VHH)
VHH: QVQLVESGGGSAQTGGSLTLSCTASGSIVSMNSMGWFRRAPWKGREWLGAIGRDGRTSYASSVVGRFHISRDEAKNTVYLQMTRLKPEDAAMYYCAAVPFGDDDVGEWEYWGQGTQVTVSS
modifications: biotinylated for BLI
[7]
  Half time ratio (relative to wt CA15839): 3.75 fold
  KD ratio (relative to wt CA15839): 4.34 fold
[8]
  Kd: 29 nM
  koff: 0.00797 s⁻¹
  kon: 387000 M⁻¹ s⁻¹

B7: CA16239 GST Nanobody stripper (including C-terminal 6xHis+EPEA tag) (VHH)
VHH: QVQLVESGGGLVQAGGSLRLSCAASERTFSTYNMAWFRQAPGKEREFVAVISWNGGTTNSADSVKGRFTISRDNAKNTVYLQMNSLKPEDTAVYYCAARRVPYLSGTRYYTGEVDYDTWGQGTQVTVSS
modifications: biotinylated for BLI
[9]
  Half time ratio (relative to wt): 1 fold
  KD ratio (relative to wt): 1 fold
[10]
  Kd: 4.86 nM
  koff: 0.00309 s⁻¹
  kon: 720000 M⁻¹ s⁻¹

B8: CA16240 GST Nanobody trapper (Y109A) (including C-terminal 6xHis+EPEA tag) (VHH)
VHH: QVQLVESGGGLVQAGGSLRLSCAASERTFSTYNMAWFRQAPGKEREFVAVISWNGGTTNSADSVKGRFTISRDNAKNTVYLQMNSLKPEDTAVYYCAARRVPYLSGTRAYTGEVDYDTWGQGTQVTVSS
modifications: biotinylated for BLI
notes: Y109A mutant of CA16239
[9]
  Half time ratio (relative to wt CA16239): 84 fold
  KD ratio (relative to wt CA16239): 136 fold
[10]
  Kd: 659 nM
  koff: 0.251 s⁻¹
  kon: 512000 M⁻¹ s⁻¹

B9: CA10309 FIXa-specific Nb (Stripper2; C-term. 6xHis+EPEA) (VHH)
VHH: QVQLVESGGGLVQAGGSLRLSCATSGIGFSIYSMGWYRQAPGKERELVASIAGNEDKDYVESVKGRFTISRDYAKNTLYLEMSGLKFEDTAMYYCAAGLRRGVSLTPYYWGQGTQVTVSS
[1]
  Kd: 21 nM
  koff: 0.00073 s⁻¹
  kon: 62000 M⁻¹ s⁻¹

B10: CA10502 FIXa-specific Nb (Trapper2; C-term. 6xHis+EPEA) (VHH)
VHH: QVQLQESGGGLVQAGGSLRLSCAASGRTSRVYGVGWFRQAPGKERELVASISTSGSVTNVADSVKGRFTISRDNAKTTVYLQMNSLKPEDTALYYCAADPHGRPYGWGQGTQVTVSS
[1]
  Kd: 74 nM
  koff: 0.004 s⁻¹
  kon: 70000 M⁻¹ s⁻¹

B11: CA15818 GFP-NbF103A (C-term. 6xHis + EPEA) (VHH)
VHH: QVQLVESGGGLVQAGGSLRLSCAASGRTFSTAAMGWFRQAPGKERDFVAGIYWTVGSTYYADSAKGRFTISRDNAKNTVYLQMDSLKPEDTAVYYCAARRRGATLAPTRANEYDYWGQGTQVTVSS
modifications: biotinylated for BLI
notes: F103A mutant of CA12760; also called Nb CA15818
GFP protein [11]
  Half-time ratio (relative to the wt Nb CA12760): 9 fold
  KD ratio (relative to the wt Nb CA12760): 30 fold
GFP protein [12]
  affinity, fold higher than the trapper CA15816: 2 fold
GFP protein [13]
  Kd: 1.5 nM
  koff: 0.00029 s⁻¹

B12: CA15861 GFP-NbT54A/V55A/F103A (C-term. 6xHis + EPEA) (VHH)
VHH: QVQLVESGGGLVQAGGSLRLSCAASGRTFSTAAMGWFRQAPGKERDFVAGIYWAAGSTYYADSAKGRFTISRDNAKNTVYLQMDSLKPEDTAVYYCAARRRGATLAPTRANEYDYWGQGTQVTVSS
modifications: biotinylated for BLI
notes: T54A/V55A/F103A mutant of CA12760; also called Nb CA15861
GFP protein [11]
  Half-time ratio (relative to the wt Nb CA12760): 1400 fold
  KD ratio (relative to the wt Nb CA12760): 2000 fold
GFP protein [12]
  affinity, fold lower than the trapper CA15816: ~100 fold
GFP protein [13]
  Kd: 111 nM
  koff: 0.0458 s⁻¹

B13: CA10304 FIXa-specific Nb (C-term. 6xHis+EPEA) (VHH)
VHH: QVQLVESGGGLVQAGGSLKLSCAASERTFSGTVMGWFRQPPGKEREFVGDISWSGSITDYADSVKGRFTISRDNAKNTMYLQMDSLKPEDTAVYYCAARVGGYSYIMSRSPADFGSWGQGTQVTVSS
notes: also called stripper1
[1]
  Kd: 46 nM
  koff: 0.0035 s⁻¹
  kon: 88000 M⁻¹ s⁻¹

B14: CA17302 mCherry Nanobody stripper (including C-terminal 6xHis+EPEA tag) (VHH)
VHH: QVQLVESGGGLVQAGGSLRLSCVASGLPFSRYNMAWFRQAPGKEREFVADIDWSGDSTYDLDSVKGRFTISRDNAKNTVYLQMSSLLPEDTAVYYCAAHFKFILAQRIKWGDMDYWGKGTQVTVSS
modifications: biotinylated for BLI
notes: also called Nb CA17302
mCherry [2]
  Half time ratio (relative to CA17302): 1 fold
  KD ratio (relative to CA17302): 1 fold
mCherry [14]
  Half time ratio (relative to wt): 1 fold
  KD ratio (relative to wt): 1 fold
mCherry [3]
  Kd: 1.69 nM
  koff: 0.00102 s⁻¹
  kon: 619000 M⁻¹ s⁻¹
mCherry [15]
  Kd: 1.69 nM
  koff: 0.00102 s⁻¹
  kon: 619000 M⁻¹ s⁻¹
[16]
  binding result: binds

B15: CA14208 FIXa-specific MegaBody (Stripper2; C-term. 6xHis+EPEA) (other)
chain: QVQLVESGGGLVYKEETQSGLNNYARVVEKGQYDSLEIPAQVAASWESGRDDAAVFGFIDKEQLDKYVANGGKRSDWTVKFAENRSQDGTLLGYSLLQESVDQASYMYSDNHYLAEMATILGKPEEAKRYRQLAQQLADYINTCMFDPTTQFYYDVRIEDKPLANGCAGKPIVERGKGPEGWSPLFNGAATQANADAVVKVMLDPKEFNTFVPLGTAALTNPAFGADIYWRGRVWVDQFWFGLKGMERYGYRDDALKLADTFFRHAKGLTADGPIQENYNPLTGAQQGAPNFSWSAAHLYMLYNDFFRKQASGGGSGGGGSGGGGSGNADNYKNVINRTGAPQYMKDYDYDDHQRFNPFFDLGAWHGHLLPDGPNTMGGFPGVALLTEEYINFMASNFDRLTVWQDGKKVDFTLEAYSIPGALVQKLTAKDVQVEMTLRFATPRTSLLETKITSNKPLDLVWDGELLEKLEAKEGKPLSDKTIAGEYPDYQRKISATRDGLKVTFGKVRATWDLLTSGESEYQVHKSLPVQTEINGNRFTSKAHINGSTTLYTTYSHLLTAQEVSKEQMQIRDILARPAFYLTASQQRWEEYLKKGLTNPDATPEQTRVAVKAIETLNGNWRSPGGAVKFNTVTPSVTGRWFSGNQTWPWDTWKQAFAMAHFNPDIAKENIRAVFSWQIQPGDSVRPQDVGFVPDLIAWNLSPERGGDGGNWNERNTKPSLAAWSVMEVYNVTQDKTWVAEMYPKLVAYHDWWLRNRDHNGNGVPEYGATRDKAHNTESGEMLFTVKKDSLRLSCATSGIGFSIYSMGWYRQAPGKERELVASIAGNEDKDYVESVKGRFTISRDYAKNTLYLEMSGLKFEDTAMYYCAAGLRRGVSLTPYYWGQGTQVTVSSHHHHHHEPEA
notes: Functionalized Nanobody derived from CA10309; also called MegaBody MbCA10309^YgjK; MbNbFIXa^cHopQ
[17]
  binding result: binds
